Results taken from patent US11795460B2, “Compositions and methods for TTR gene editing and treating ATTR amyloidosis” (Intellia Therapeutics, Inc., priority 2017, dated 2023).
Strand notation (5' to 3'): a small letter for the sugar, then the base; units joined by * are phosphorothioate-linked, units joined directly phosphodiester-linked; [ ] holds rarer units or linkages, { } end groups; capitals alone tell only the bases. m = 2'-O-methyl; r = 2'-OH (RNA)

B1: G000502: TTR Cyno specific sgRNA modified sequence, SEQ ID No. 114; guide sequence of CR000689; cross homologous between mouse and cyno (nucleic acid)
guide: mA*mC*mA*rCrArArArUrArCrCrArGrUrCrCrArGrCrGrGrUrUrUrUrArGrAmGmCmUmAmGmAmAmAmUmAmGmCrArArGrUrUrArArArArUrArArGrGrCrUrArGrUrCrCrGrUrUrArUrCrAmAmCmUmUmGmAmAmAmAmAmGmUmGmGmCmAmCmCmGmAmGmUmCmGmGmUmGmCmU*mU*mU*mU
B2: G000486: TTR sgRNA modified sequence, Human, SEQ ID No. 93; guide sequence of CR003339 (nucleic acid)
guide: mA*mC*mA*rCrArArArUrArCrCrArGrUrCrCrArGrCrArGrUrUrUrUrArGrAmGmCmUmAmGmAmAmAmUmAmGmCrArArGrUrUrArArArArUrArArGrGrCrUrArGrUrCrCrGrUrUrArUrCrAmAmCmUmUmGmAmAmAmAmAmGmUmGmGmCmAmCmCmGmAmGmUmCmGmGmUmGmCmU*mU*mU*mU
B3: G000488: TTR sgRNA modified sequence, Human, SEQ ID No. 95; guide sequence of CR003346 (nucleic acid)
guide: mA*mA*mA*rGrUrUrCrUrArGrArUrGrCrUrGrUrCrCrGrGrUrUrUrUrArGrAmGmCmUmAmGmAmAmAmUmAmGmCrArArGrUrUrArArArArUrArArGrGrCrUrArGrUrCrCrGrUrUrArUrCrAmAmCmUmUmGmAmAmAmAmAmGmUmGmGmCmAmCmCmGmAmGmUmCmGmGmUmGmCmU*mU*mU*mU
B4: G000494: TTR sgRNA modified sequence, Human, SEQ ID No. 101; guide sequence of CR003360 (nucleic acid)
guide: mG*mU*mG*rArGrUrCrUrGrGrArGrArGrCrUrGrCrArUrGrUrUrUrUrArGrAmGmCmUmAmGmAmAmAmUmAmGmCrArArGrUrUrArArArArUrArArGrGrCrUrArGrUrCrCrGrUrUrArUrCrAmAmCmUmUmGmAmAmAmAmAmGmUmGmGmCmAmCmCmGmAmGmUmCmGmGmUmGmCmU*mU*mU*mU
B5: G000480: TTR sgRNA modified sequence, Human, SEQ ID No. 87; guide sequence of CR003353 (nucleic acid)
guide: mA*mA*mA*rGrGrCrUrGrCrUrGrArUrGrArCrArCrCrUrGrUrUrUrUrArGrAmGmCmUmAmGmAmAmAmUmAmGmCrArArGrUrUrArArArArUrArArGrGrCrUrArGrUrCrCrGrUrUrArUrCrAmAmCmUmUmGmAmAmAmAmAmGmUmGmGmCmAmCmCmGmAmGmUmCmGmGmUmGmCmU*mU*mU*mU
B6: G000499: TTR sgRNA modified sequence, Human, SEQ ID No. 106; guide sequence of CR005303 (nucleic acid)
guide: mU*mG*mA*rArUrCrCrArArGrUrGrUrCrCrUrCrUrGrArGrUrUrUrUrArGrAmGmCmUmAmGmAmAmAmUmAmGmCrArArGrUrUrArArArArUrArArGrGrCrUrArGrUrCrCrGrUrUrArUrCrAmAmCmUmUmGmAmAmAmAmAmGmUmGmGmCmAmCmCmGmAmGmUmCmGmGmUmGmCmU*mU*mU*mU
B7: G000571: TTR sgRNA modified sequence, Human, SEQ ID No. 112; guide sequence of CR005301 (nucleic acid)
guide: mG*mU*mC*rArCrArGrArArArCrArCrUrCrArCrCrGrUrGrUrUrUrUrArGrAmGmCmUmAmGmAmAmAmUmAmGmCrArArGrUrUrArArArArUrArArGrGrCrUrArGrUrCrCrGrUrUrArUrCrAmAmCmUmUmGmAmAmAmAmAmGmUmGmGmCmAmCmCmGmAmGmUmCmGmGmUmGmCmU*mU*mU*mU
B8: G000487: TTR sgRNA modified sequence, Human, SEQ ID No. 94; guide sequence of CR003357 (nucleic acid)
guide: mU*mU*mC*rUrUrUrGrGrCrArArCrUrUrArCrCrCrArGrGrUrUrUrUrArGrAmGmCmUmAmGmAmAmAmUmAmGmCrArArGrUrUrArArArArUrArArGrGrCrUrArGrUrCrCrGrUrUrArUrCrAmAmCmUmUmGmAmAmAmAmAmGmUmGmGmCmAmCmCmGmAmGmUmCmGmGmUmGmCmU*mU*mU*mU
B9: G000496: TTR sgRNA modified sequence, Human, SEQ ID No. 103; guide sequence of CR005304 (nucleic acid)
guide: mG*mG*mC*rCrGrUrGrCrArUrGrUrGrUrUrCrArGrArArGrUrUrUrUrArGrAmGmCmUmAmGmAmAmAmUmAmGmCrArArGrUrUrArArArArUrArArGrGrCrUrArGrUrCrCrGrUrUrArUrCrAmAmCmUmUmGmAmAmAmAmAmGmUmGmGmCmAmCmCmGmAmGmUmCmGmGmUmGmCmU*mU*mU*mU

Key:
TTR [1] = experiment: TTR editing in primary cyno hepatocytes electroporated with Spy Cas9 protein and dgRNAs (Tables 10, 11); assay type: cell-based, cynomolgus monkey; details: Table 10; primary cyno hepatocytes electroporated with Spy Cas9 protein (RNP) and dgRNAs
Summary of the method: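 Editing efficiency is the fraction of NGS reads carrying insertions, deletions or substitutions at the TTR target, measured on MiSeq amplicons from DNA harvested 24, 48 or 72 h post-delivery. Cas9–dgRNA ribonucleoprotein was nucleofected (P3 buffer, EX-147) into primary human or cyno hepatocytes.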

TTR [2] = experiment: TTR editing in primary cyno hepatocytes treated with LNP formulated Spy Cas9 mRNA (SEQ ID NO: 2) and sgRNAs (Tables 17, 18); assay type: cell-based, cynomolgus monkey; details: for 12.5 ng mRNA, 3.9 nM sgRNA Avg % Edit: Table 17, LNP formulated Spy Cas9 mRNA (SEQ ID NO: 2) and sgRNA, 72 hours
Description: (§1) Primary liver hepatocytes. Primary human liver hepatocytes (PHH) and primary cynomolgus liver hepatocytes (PCH) (Gibco) were cultured per the manufacturer's protocol (Invitrogen, protocol 11.28.2012). In brief, the cells were thawed and resuspended in hepatocyte thawing medium with supplements (Gibco, Cat. CM7000) followed by centrifugation at 100 g for 10 minutes for human and 80 g for 4 minutes for cyno. The supernatant was discarded and the pelleted cells resuspended in hepatocyte plating medium plus supplement pack (Invitrogen, Cat. A1217601 and CM3000). Cells were counted and plated on Bio-coat collagen I coated 96-well plates (ThermoFisher, Cat. 877272) at a density of 33,000 cells/well for human or 60,000 cells/well for cyno (or 65,000 cells/well when assaying effects on TTR protein, described further below). Plated cells were allowed to settle and adhere for 6 or 24 hours in a tissue culture incubator at 37° C. and 5% CO2 atmosphere. After incubation cells were checked for monolayer formation and media was replaced with hepatocyte culture medium with serum-free supplement pack (Invitrogen, Cat. A1217601 and CM4000).
(§2) In general, the lipid nanoparticle components were dissolved in 100% ethanol with the lipid component of various molar ratios. The RNA cargos were dissolved in 25 mM citrate, 100 mM NaCl, pH 5.0, resulting in a concentration of RNA cargo of approximately 0.45 mg/mL. The LNPs were formulated with a lipid amine to RNA phosphate (N:P) molar ratio of about 4.5 or about 6, with the ratio of mRNA to gRNA at 1:1 by weight.
(§3) The LNPs were formed by microfluidic mixing of the lipid and RNA solutions using a Precision Nanosystems NanoAssemblr™ Benchtop Instrument, according to the manufacturer's protocol. A 2:1 ratio of aqueous to organic solvent was maintained during mixing using differential flow rates. After mixing, the LNPs were collected, diluted in water (approximately 1:1 v/v), held for 1 hour at room temperature, and further diluted with water (approximately 1:1 v/v) before final buffer exchange. The final buffer exchange into 50 mM Tris, 45 mM NaCl, 5% (w/v) sucrose, pH 7.5 (TSS) was completed with PD-10 desalting columns (GE). If required, formulations were concentrated by centrifugation with Amicon 100 kDa centrifugal filters (Millipore). The resulting mixture was then filtered using a 0.2 μm sterile filter. The final LNP was stored at −80° C. until further use.
(§4) To quantitatively determine the efficiency of editing at the target location in the genome, sequencing was utilized to identify the presence of insertions and deletions introduced by gene editing.
(§5) Primers were designed around the target site within the gene of interest (e.g. TTR), and the genomic area of interest was amplified.
(§6) Additional PCR was performed per the manufacturer's protocols (Illumina) to add chemistry for sequencing. The amplicons were sequenced on an Illumina MiSeq instrument. The reads were aligned to a reference genome (e.g., the human reference genome (hg38), the cynomologus reference genome (mf5), the rat reference genome (rn6), or the mouse reference genome (mm10)) after eliminating those having low quality scores. The resulting files containing the reads were mapped to the reference genome (BAM files), where reads that overlapped the target region of interest were selected and the number of wild type reads versus the number of reads which contain an insertion, substitution, or deletion was calculated.
(§7) The editing percentage (e.g., the “editing efficiency” or “percent editing” or “indel frequency”) is defined as the total number of sequence reads with insertions/deletions (“indels”) or substitutions over the total number of sequence reads, including wild type.
(§8) Lipid nanoparticle formulations of modified sgRNAs targeting human TTR and the cyno matched sgRNA sequences were tested on primary human hepatocytes and primary cyno hepatocytes in a dose response curve. Primary human and cyno hepatocytes were plated as described in Example 1. […]

TTR [3] = experiment: TTR editing in primary human hepatocytes transfected with Spy Cas9 mRNA and sgRNAs (Table 13); assay type: cell-based; details: primary human hepatocytes co-transfected with Spy Cas9 mRNA (SEQ ID NO:2) and sgRNAs, 12.5 nM
Description: as §1
Lipofectamine RNAiMax (ThermoFisher, Cat. 13778150) based transfections were conducted as per the manufacturer's protocol. Cells were sequentially transfected with a lipoplex containing Spy Cas9 mRNA (100 ng), Lipofectamine RNAiMax (0.4 […]) and tracer RNA ([…]), Lipofectamine RNAiMax (0.4 μL/well) and OptiMem.
Transfected cells were harvested post-transfection at 24, 48, or 72 hours. The genomic DNA was extracted from each well of a 96-well plate using 50 μL/well BuccalAmp DNA Extraction solution (Epicentre, Cat. QE09050) per manufacturer's protocol. All DNA samples were subjected to PCR and subsequent NGS analyses, as described herein.
as §4, §5, §6, §7
Guides in modified sgRNA format targeting human and/or cyno TTR were delivered to primary human hepatocytes and primary cyno hepatocytes as described in Example 1. Percent editing was determined for crRNAs comprising each guide sequence across each cell type and the guide sequences were then rank ordered based on highest % edit. The screening data for the guide sequences in Table 2 in both cell lines are listed below (Table 12 through 15).

TTR [4] = experiment: TTR editing in primary human hepatocytes treated with LNP formulated Spy Cas9 mRNA (SEQ ID NO: 2) and sgRNAs (Table 16); assay type: cell-based; details: LNP formulated Spy Cas9 mRNA (SEQ ID NO: 2) and sgRNA, 72 hours
Description: as §1, §2, §3, §4, §5, §6, §7, §8

| Molecule | Avg % Deletion (TTR [1]) [%] | Avg % Edit (TTR [1]) [%] | Avg % Insert (TTR [1]) [%] | 12.5 ng mRNA, 3.9 nM sgRNA % Edit (TTR [2]; LNP formulated Spy Cas9 mRNA (SEQ ID NO: 2) and cyno matched sgRNAs, 72 hours post treatment) [%] | Avg % Deletion (TTR [3]) [%] | Avg % Edit (TTR [3]) [%] | Avg % Insert (TTR [3]) [%] | 12.5 ng mRNA, 3.9 nM sgRNA Avg % Edit (TTR [4]) [%] | 12.5 ng mRNA, 3.9 nM sgRNA Avg % Edit (TTR [2]) [%] |
| --- | --- | --- | --- | --- | --- | --- | --- | --- | --- |
| AAGUGCCUUCCAGUAAGAUU (tested as dual guide RNA, chemistry not given here) [CR003368] | 0.26 | 18.56 | 18.30 | – | – | – | – | – | – |
| GUGAGUCUGGAGAGCUGCAU (tested as dual guide RNA, chemistry not given here) [CR003360] | 0.42 | 29.47 | 29.05 | – | – | – | – | – | – |
| GUCACAGAAACACUCACCGU (tested as dual guide RNA, chemistry not given here) [CR005301] | 0.42 | 46.76 | 46.34 | – | – | – | – | – | – |
| UUUGACCAUCAGAGGACACU (tested as dual guide RNA, chemistry not given here) [CR003344] | 1.91 | 35.72 | 33.81 | – | – | – | – | – | – |
| AGUGAGUCUGGAGAGCUGCA (tested as dual guide RNA, chemistry not given here) [CR003359] | 5.51 | 46.17 | 40.66 | – | – | – | – | – | – |
| B1 | – | – | – | 80.70 | – | – | – | – | – |
| B2 | – | – | – | – | 56.37 | 59.13 | 2.82 | 61.33 | – |
| B3 | – | – | – | – | 37.48 | 49.40 | 11.98 | 44.80 | – |
| B4 | – | – | – | – | 1.07 | 26.22 | 25.17 | 6.37 | 14.30 |
| B5 | – | – | – | – | 13.47 | 73.28 | 59.85 | 59.33 | 0.73 |
| B6 | – | – | – | – | 0.77 | 39.30 | 38.58 | 16.07 | 14.63 |
| B7 | – | – | – | – | 6.13 | 20.47 | 14.47 | – | 20.20 |
| B8 | – | – | – | – | 2.27 | 49.57 | 47.38 | 17.37 | – |
| B9 | – | – | – | – | 52.25 | 63.30 | 11.08 | 30.73 | – |
